Source: the domain aggregation screens of Martell et al. (2025)

Assay: soluble fraction after stress (log2 fold change); higher = more stays soluble; pooled small domains, quantitative proteomics
Conditions: stress: 50 degC
Procedure, shortened: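 The measure of aggregation propensity here is the base-two logarithm of the fold change in the soluble amount of each protein after stress. A higher value means more of that protein stays in solution. Stress was applied at 50°C to pooled libraries of small protein domains, read out by high-throughput quantitative proteomics.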

## HMPVSTLLGDNLRRLRTAKGYTQEAVADAARISVAAYRNYETGRAIPKVNTLLAIARALGVSLNDLVTE
  soluble fraction (log2): -0.104

## HMPVTAQFDFSKVLAGRTLKDGEFSFVLKDKNGTVLQTKTNDASGKVAFDALIYKNNEVGEHKYTVEEVI
  soluble fraction (log2): 0.208

## HMPVVKIPFILTEGPSSITKVIEIDADEILELKDVFQEDDKLWSINQIEMNDGRYVKHSDASLIVRASALR
  soluble fraction (log2): 0.066

## HMPYHSEAWHKVMKSHWLTLSREEAYMHEGRTGASTINIVFQRELGREATQEEIESIYQEKSVLFNSYP
  soluble fraction (log2): -1.46

## HMPYLVNGFILEVQSDDNNPVGTLKRRYAVAKNKQGVILLEGEKSFSSNDQILINELKFYIQSNDLKA
  soluble fraction (log2): -2.43

## HMPYSKIALQISHLLKSHGVPLSNKQIYEKLINDFQLSINYSNLTNNILPRMNSDSSINVEKVTRGYWQY
  soluble fraction (log2): -0.634

## HMQADKYKSYTATDFLKDKDFLRWQLFNGEEDMLFWGRVIEEYPALRSRVEEGIVLYKDNIR
  soluble fraction (log2): -0.981

## HMQADTATITGNGVNMRSGPGTNYQIIDTIPKGTVAEVLSQQDGWVKIYSARISGWVSASYVEIKQT
  soluble fraction (log2): -0.356

## HMQAGNAVEQYPTIGRLEEVTLGRSQPGAPIGERLSTLETVVFKRNFNDDSLFDRTERLKKTILGG
  soluble fraction (log2): 0.0575

## HMQAKQVAIPDVANYSVTDAIKKLQDAGFIVSDEQREEANETVSEGKVSRTSPAAGSIRKEGTEIILYKSL
  soluble fraction (log2): 0.198

## HMQALDETTVSRIRQKAAARNLLLKVLAGQLGVARPTLSNVLARREAPSAALAARIRAFLDSP
  soluble fraction (log2): -0.894

## HMQALTLVGQDAKDAKAALDAVDIQPAKTETDRYIYVLTEQQAQELGRTVDALYGVEGSLTLILEV
  soluble fraction (log2): 0.0301

## HMQAQQYYMLLMNKATSALKIEALGANSNKAHQSFGTKTAGGSAVYWGILFNSNGKIYKIVG
  soluble fraction (log2): -2.96

## HMQASIPQSQKDALAKELQALPPHGRNRVLSTFRQQFNISSEKISEFITTPEHLSFIRSKIAEVESDS
  soluble fraction (log2): 0.0722

## HMQDENAVTYLLEIKNADANDIASVLKTLKSPDADVVVYKTLNMIIFTGQGSEINGLVKVARQLDRK
  soluble fraction (log2): -0.417

## HMQDGVNLENIEQKLSTLGVGKAQYFLQNVGGNKFNAYMALNTDGVEGYQKGSDTLIEIKNVE
  soluble fraction (log2): 0.11

## HMQDKIWVVDETQLYPKLIEAMSEGKAVIHDGVAYWAEGSGKTGVIQHLPFKETTVQNVEEAIKLAQ
  soluble fraction (log2): 0.169

## HMQDKLLRKKEVLEMVSITNSTMYRMIGSGQFPRPIRLDNANINSGVRWKLSEINTFIEQRF
  soluble fraction (log2): -0.409

## HMQDLAKRWVEEFGDLLYKYTLPRVSDSGIAKDLVQETFLAAWRNIDNFKGEASEKNWLFTILKNKIIDH
  soluble fraction (log2): -0.213

## HMQDLTAQQQAILSFLKEHPKATRKEISENIPNITEDNIRYNLSQLQELGFVKSMGDSFIRIAI
  soluble fraction (log2): 0.0658

## HMQDNDLKNQIENVLRTYPDNVFTVEKIADVLRSHGSAAFKLIVQELASLERDKVAVVTEDGKFQLNPD
  soluble fraction (log2): 0.125

## HMQDPTAVISRVLEERKHQPGALLPILHGIQDALGYVPREAVAQIAQALNLSRAEIHGVVSFYHHFR
  soluble fraction (log2): -0.547

## HMQDPVWVDWLGENDWFQKDPKRRGLANGYSEILRAEQPELVGRPFLDEVTRRVQADFPELFG
  soluble fraction (log2): -0.335

## HMQDTRSHARKMLAAIEALLEGRSGSDIQAYTIHNRSITKMTVPELVKWRSYYQQQVRSEDAAASLA
  soluble fraction (log2): -0.129

## HMQDTYLYPVQHNGKVRLQVELPAKGLPEDLVRLALAHPKVVEWLNGRIPTKTIAVPGRIINMVLPNQ
  soluble fraction (log2): -0.134

## HMQDVWEPFLAKGYVFADGMLTKLIHKRGDVYKTQEIGSDKIIYVIKDGDTFAHGKTVKAAMLDLAFKKS
  soluble fraction (log2): -1.29

## HMQDYISAEEAKSAALSASQVDSAGAAFSAAELGEKNGIPYYEVAFTADGLEYRYAIDAQTGTVIESSSSG
  soluble fraction (log2): 0.0366

## HMQEDKVRKLTEMGFAEDQAREALRKHDWDETMALNSL
  soluble fraction (log2): 0.199

## HMQEDSNISFVKIHVDADSGMAHKKLSKLSLPTGFLIVVIIRGEENIIPNGETEVLPGDLLVAAAREFEN
  soluble fraction (log2): -0.405

## HMQEEELYPRLEEVINQHRGKGEDLIMVLHKAQNLFGYLPRRAQEMVAEGLNVSLNEVYGVITFYNFFST
  soluble fraction (log2): -0.0621

## HMQEERDISFIKIHLEPGHPWRGRALRELMPLKDLLIVMVVRGEDTIVPNGDTRLEEGDLLVLAAYPFEE
  soluble fraction (log2): -0.436

## HMQEHAHLWRLMEDNRSFKADYIAFENGIVLLQNLSSGKISQYPITDFSIEDQLLILKRHELTAHINAN
  soluble fraction (log2): -3.09

## HMQEIKPEPISDGRVWKEGMWATTPLGIEGQLLSDPDEKGMVQLGYGNMRININIQDLDPSR
  soluble fraction (log2): -0.0705

## HMQEISQEEALATVLKDLSLTEADLKDLQITREEDKYKILFSKGQTAYDVLVSAKDGQLLQSKQETI
  soluble fraction (log2): -0.165

## HMQEKQIIDGREFYIHQVERGITLYSIAKQYNVKVADIQAENPFLEAGLQPGQTLKIPLDKVETVQEIK
  soluble fraction (log2): 0.125

## HMQEPIAVPDFINKSAVDVLVNPVFTQNFKLVSEDVYDDKVPEGYIVGQSVKSDTLVQPGTEIVIYV
  soluble fraction (log2): 0.175

## HMQEPNYQPLMQNIKSQDLEEVTRLLSLNDVKFKIDHRTGLLLVESSRVYEAKMKLAATGITD
  soluble fraction (log2): -0.224

## HMQEPVHFTRRERQVLSLILSGQATAEIAKTLGIANATVTTYKKSLYSKSGTNSLSRLLIWAMVRR
  soluble fraction (log2): -0.27

## HMQEPVYRPVFPGMTDADRQSAMEALKEGGFSPRLNRQTGQLEVDASGYHEAKIYLASQGIPAE
  soluble fraction (log2): 0.124

## HMQERNYIVRRGDTLWDLAKTYYGSGTKYTVIYDANRDNIEAEAKRRGKQSSNGGYWIYPGTELTI
  soluble fraction (log2): -0.368

## HMQERTVVKGVVVQVSRDEAYVDIGYKQEIPVSKRDLAVPAPDDARDVVKVGDEIDVYIKSLGGDNGG
  soluble fraction (log2): -0.00098

## HMQESTPGEGYKWREDVLLRVMSQNGIDESLRDEFVRHAVNYDIDDNMYLKKAEIESAAEAWVLENS
  soluble fraction (log2): -0.0581

## HMQESVTVSAQALRRLLEKGDGDAALLYLALLRHHGTIQPRALAGELRWERPRIEAAEEALRQMGLIA
  soluble fraction (log2): -0.0318

## HMQETMTNDEVISLTKAGLSSSIIIGKIRSSATNFDLSTDSLIKLKQAGVSDETVAAMLEAKS
  soluble fraction (log2): 0.0855

## HMQGAARGMLFAQAQRWMTKFRIDPQQADRITQAALDPAQTDAILREVRRGYGPSAERALRGIIRRARRA
  soluble fraction (log2): -0.968

## HMQGEAMQETVKKLDAFLQDNSVSMSALARALGVSPSLISQFRSGSYKGDSQAIAAKINSYIDNHNKKSK
  soluble fraction (log2): 0.0765

## HMQGEKDDLWREVLDNPDAWWDNRERKNAPGGNPRYPDFKHKDSQTPLWIESRDTPQWAIDALL
  soluble fraction (log2): 0.383

## HMQGNGKVATELLKDIIASDNLYINAMRMLVMHYNSKGTNQVEMVKLLHNILDLVPDDEYANEILKSAKKA
  soluble fraction (log2): -0.327

## HMQGPDPYAVLGIDRHADERAIKRAYRKLISEHHPDRLGDLPEDMRKRAESRASEINAAYDRIKEARGF
  soluble fraction (log2): 0.0487

## HMQGQVLQETARKARSQLDSEIPGFNDALYQNLIKSSENYGYKAEEVAQWVDPRAIKVLNDAYQFQQLKAG
  soluble fraction (log2): -0.0765

## HMQGTTTELLIQKSALYEELNDPEKALNAMFDAFEMDSLNVNVLHRIVSLLLDKEENEKAILYNQLIIDH
  soluble fraction (log2): 0.126

## HMQHQSGLKSGEFEAISQQLQALLKENPLSLQEIKDKMQVTENHLIKVVSYLVSEEIIRQENGYLK
  soluble fraction (log2): -0.729

## HMQIAGLDDIDNRIIDLLLKNGRASYSEIGAAVGLSRTAAKNRIRALEASGIIRGYQAILDPQA
  soluble fraction (log2): -0.205

## HMQIDDSVELSAIVEKLLAANPEQVEQLKNGKTKVLGYFVGLAMKETQGRANPQKVNELIQTHL
  soluble fraction (log2): -0.174

## HMQIDRLFDIVYTLLRKKSATAAELAERFGVSKRTILRDIETLSVAGIPILTSPGKGGGVSISSSF
  soluble fraction (log2): -0.881

## HMQIIETTVGRVLFNEKVPEAAGYINEVLTKKSLRDIIHGILKKTSVPETAAFLDEIKSLGYNFAF
  soluble fraction (log2): -0.066

## HMQIIEVPYSEFLKKLESGQISEVSRDSYQIVFTDRSQPPIIYKTGLMEDPGLVDKMQEAGVTFTSP
  soluble fraction (log2): 0.12

## HMQIKNVDYGTFLDMLDEKNVKEVEIEDEQIVFTDNADPTGYYTTGRMEDPDLVDRLHNSGATFSAI
  soluble fraction (log2): -0.12

## HMQILLASHAELAKGILSAVELIAGTQQNLKAYSAYTEAVDVHFKDQMLQDLNKMDPEDEVIL
  soluble fraction (log2): 0.0294

## HMQINLSEWVLAAREYAGPEMTQEKLAEHLGRTKANVSAMENGRSKPSFEQMMEIHRVTGYPLPYQ
  soluble fraction (log2): -0.218

## HMQISDAGALLDAVRRVLAENPAQVEQFRAGKEKVMGFLVGQVMRATGGKANPQMLNDVLREELS
  soluble fraction (log2): -0.0404

## HMQISDEGELSGIVRKIIDANPQSVADYKAGKKKAIGFLVGQIMIETKGRANPASVNELLIKKLE
  soluble fraction (log2): -0.0642

## HMQISDNTILEDAVSRIIDENPKSVSDYFQGKEAVVGFFIGQIMRETKGTANPKIAREIVISHLEAI
  soluble fraction (log2): -0.778

## HMQISGIHLYERRITKDDEWAERKLSEISLAGSLVILILRNEHVVIPNGETVLKENDLLYISD
  soluble fraction (log2): -2.93

## HMQISGSEELEKIVQTVLEKNTDVVEEYKSGKTKVFAFLMGQVMKESRGKANPRLAKDILEKFLA
  soluble fraction (log2): -0.0362

## HMQITAPVQKIDGVEYYMHKVEQGQTLYSISKLYNVGVKEIQKANQLGTEGIQLGQVLKVRKGG
  soluble fraction (log2): -0.0136

## HMQIYLTPEQFKIIDFMEQMGKITVKDVMDILNIPKRTAQLHLQKLKTLKMIAQTGKGPSSAYLL
  soluble fraction (log2): -0.959

## HMQKDAYVPDIISKLKSSRMIVVEGTIYPLLTRLKNTGLLSYRWEESLQGPPRKYYSITEQG
  soluble fraction (log2): 0.112

## HMQKDYKTRLQEYYAKVGKKVNYMDSSTGPDHDKKFQTQVFLDKEIIGVGEGKSKKSSQQEAAKQALEKI
  soluble fraction (log2): 0.338

## HMQKFINQEHEKAYNLMLEKDYQQALKIFDDLIYLFPNEANLLSDRGVIFIHLNKKEAALQDFDQAVF
  soluble fraction (log2): -2

## HMQKIEKVDYGTFLKMIENGEIDQVNLTEKKISFTTDKDAETVYETGRVEDPNIVDRLYQADVEFTQEI
  soluble fraction (log2): 0.207

## HMQKIENYDQFVQAFKRLSGLDLKLYKENQMKRRINNFINNHGFKENYDQFFQAITGNKELYNAFFKHLTI
  soluble fraction (log2): -0.172

## HMQKKYLAVKEYLLEQINSGAYQPDEPIPPEREMAAMLGVNRMTLRRAVEELMYEGLLIRKKGSGTFLTK
  soluble fraction (log2): -1.52

## HMQKLSPKQRRGNIIELIKENPTITAKNISTIFNLNQRTIERDLAKLTEEGYIKYEGSSKDGKWVFL
  soluble fraction (log2): 0.087

## HMQKNKSVLFKDIVIAFNQNPKKLFNYKQLAADLDIHSEAERMLISQLLNDLKDQNFLEEVERGKYKLKL
  soluble fraction (log2): 0.0237

## HMQKPIKPVKMHTVGPKENLSSIGRMYEVNGRVLANYNNIDYDKGLTIGQVLKIPPKGTTLEQVT
  soluble fraction (log2): 0.431
